Assay results published in patent US20240342207, “MODIFIED NUCLEIC ACID COMPOSITIONS AND ASSOCIATED METHODS FOR TREATMENT OF PHENYLKETONURIA” (BOARD OF REGENTS, THE UNIVERSITY OF TEXAS SYSTEM, published 2024).

Columns and labels:
Experiment in all cases: EMSA; one of 13 of 17 binding mutants; affinity not decreased
Conditions in all cases: tags: His-tag, E. coli; stem-loop
[1] = target: T1, PAH F55L (Homo sapiens, UniProt P00439 P00439:1-452, F55L)
T1 sequence: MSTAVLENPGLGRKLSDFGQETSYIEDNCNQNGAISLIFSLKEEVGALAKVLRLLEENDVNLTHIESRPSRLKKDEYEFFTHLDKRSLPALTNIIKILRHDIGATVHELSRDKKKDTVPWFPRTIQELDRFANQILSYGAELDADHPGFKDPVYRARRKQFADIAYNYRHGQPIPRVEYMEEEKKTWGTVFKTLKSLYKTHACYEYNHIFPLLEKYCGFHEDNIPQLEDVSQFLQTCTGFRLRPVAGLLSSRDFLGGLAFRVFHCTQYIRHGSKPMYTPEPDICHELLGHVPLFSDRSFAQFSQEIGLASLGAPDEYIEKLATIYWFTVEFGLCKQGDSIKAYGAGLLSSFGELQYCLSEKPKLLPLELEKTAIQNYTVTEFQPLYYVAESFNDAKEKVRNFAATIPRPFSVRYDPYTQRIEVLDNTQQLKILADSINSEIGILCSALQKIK

[2] = target: T2, PAH I65S (Homo sapiens, UniProt P00439 P00439:1-452, I65S)
T2 sequence: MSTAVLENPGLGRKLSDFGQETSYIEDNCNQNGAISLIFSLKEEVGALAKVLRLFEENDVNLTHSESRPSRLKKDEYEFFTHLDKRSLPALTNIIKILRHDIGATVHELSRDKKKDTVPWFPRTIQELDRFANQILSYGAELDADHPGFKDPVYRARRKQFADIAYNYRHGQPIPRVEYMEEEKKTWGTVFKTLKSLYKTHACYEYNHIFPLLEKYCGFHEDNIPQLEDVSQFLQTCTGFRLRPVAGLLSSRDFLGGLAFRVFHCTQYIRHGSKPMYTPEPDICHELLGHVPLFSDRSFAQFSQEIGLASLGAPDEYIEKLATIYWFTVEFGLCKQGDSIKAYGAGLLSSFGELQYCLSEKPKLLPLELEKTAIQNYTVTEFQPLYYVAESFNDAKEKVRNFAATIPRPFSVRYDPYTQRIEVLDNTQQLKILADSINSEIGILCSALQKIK

[3] = target: T3, PAH P275L (Homo sapiens, UniProt P00439 P00439:1-452, P275L)
T3 sequence: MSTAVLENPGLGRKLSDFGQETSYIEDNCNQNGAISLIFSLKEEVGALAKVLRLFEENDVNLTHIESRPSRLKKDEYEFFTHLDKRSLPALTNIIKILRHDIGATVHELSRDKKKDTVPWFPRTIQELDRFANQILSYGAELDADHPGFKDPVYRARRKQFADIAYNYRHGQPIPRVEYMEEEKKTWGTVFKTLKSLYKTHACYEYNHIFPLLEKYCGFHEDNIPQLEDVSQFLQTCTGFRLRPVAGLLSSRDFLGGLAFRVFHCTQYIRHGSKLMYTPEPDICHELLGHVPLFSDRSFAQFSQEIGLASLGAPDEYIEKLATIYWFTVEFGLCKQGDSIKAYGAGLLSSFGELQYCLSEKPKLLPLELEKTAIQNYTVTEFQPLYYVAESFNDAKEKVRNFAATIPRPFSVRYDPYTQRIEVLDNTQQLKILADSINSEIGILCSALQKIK

[4] = target: T4, PAH F299C (Homo sapiens, UniProt P00439 P00439:1-452, F299C)
T4 sequence: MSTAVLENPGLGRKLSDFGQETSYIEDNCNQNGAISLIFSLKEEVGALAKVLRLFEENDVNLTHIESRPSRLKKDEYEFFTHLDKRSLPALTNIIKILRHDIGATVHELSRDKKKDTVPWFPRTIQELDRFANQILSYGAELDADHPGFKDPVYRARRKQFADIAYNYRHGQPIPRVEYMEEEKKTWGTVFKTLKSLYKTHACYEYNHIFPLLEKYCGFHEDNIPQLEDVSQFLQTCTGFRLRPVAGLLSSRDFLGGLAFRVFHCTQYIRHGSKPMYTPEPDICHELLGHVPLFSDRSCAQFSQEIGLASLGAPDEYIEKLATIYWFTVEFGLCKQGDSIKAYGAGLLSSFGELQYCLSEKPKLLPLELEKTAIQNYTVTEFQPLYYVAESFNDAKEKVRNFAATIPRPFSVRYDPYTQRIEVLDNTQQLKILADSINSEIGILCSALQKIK

[5] = target: T5, PAH I318T (Homo sapiens, UniProt P00439 P00439:1-452, I318T)
T5 sequence: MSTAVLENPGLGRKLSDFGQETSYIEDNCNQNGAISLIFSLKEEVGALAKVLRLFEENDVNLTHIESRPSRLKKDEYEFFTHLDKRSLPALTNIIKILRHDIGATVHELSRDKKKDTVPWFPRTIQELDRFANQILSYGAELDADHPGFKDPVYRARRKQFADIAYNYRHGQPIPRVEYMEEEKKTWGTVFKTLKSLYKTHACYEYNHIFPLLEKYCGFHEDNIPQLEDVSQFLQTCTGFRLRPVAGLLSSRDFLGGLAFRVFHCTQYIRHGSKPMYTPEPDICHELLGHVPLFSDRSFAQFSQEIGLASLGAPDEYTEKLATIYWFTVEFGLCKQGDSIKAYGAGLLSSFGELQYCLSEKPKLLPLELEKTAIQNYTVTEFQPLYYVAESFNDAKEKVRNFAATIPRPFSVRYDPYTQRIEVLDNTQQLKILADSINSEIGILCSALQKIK

Measured: binding result

CAAAAUGCAUAUGUAUCUUUG (ssRNA) [HULC 181-201 mimic]
binds: all assays above
